Measured values from patent publication US20150166666A1 (Chugai, published 2015).
Changes are numbered by the printed parent chain. Where two headings read alike, the source gives them in different places.

Experiments:
[1] = target: T1, Soluble recombinant human IL-6 receptor (SR344) (human, UniProt P08887 20-344, limits assumed, biotinylated (sites not given) only in the membrane-type dissociation assay); experiment: cell-based or functional assay
T1 sequence (looked up): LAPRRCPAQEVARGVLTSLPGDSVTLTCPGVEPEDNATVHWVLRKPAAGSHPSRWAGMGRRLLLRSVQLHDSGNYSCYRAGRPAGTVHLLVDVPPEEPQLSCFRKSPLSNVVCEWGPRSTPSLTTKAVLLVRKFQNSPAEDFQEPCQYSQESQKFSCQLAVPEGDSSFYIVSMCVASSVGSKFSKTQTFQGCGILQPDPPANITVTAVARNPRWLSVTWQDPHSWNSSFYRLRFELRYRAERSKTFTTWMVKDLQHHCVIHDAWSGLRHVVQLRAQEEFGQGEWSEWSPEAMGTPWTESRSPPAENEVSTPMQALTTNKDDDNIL

[2] = target: T2, Soluble human FcRn (complex of FcRn and beta2-microglobulin) (human, UniProt P55899 24-290; P16213 21-119); experiment: Biacore, binding to human FcRn
T2 construct: Both constructs are stated with their signal regions (Met1-Leu290; Met1-Met119)
T2 sequence (P55899 24-290 limits assumed, chain 1 of 2): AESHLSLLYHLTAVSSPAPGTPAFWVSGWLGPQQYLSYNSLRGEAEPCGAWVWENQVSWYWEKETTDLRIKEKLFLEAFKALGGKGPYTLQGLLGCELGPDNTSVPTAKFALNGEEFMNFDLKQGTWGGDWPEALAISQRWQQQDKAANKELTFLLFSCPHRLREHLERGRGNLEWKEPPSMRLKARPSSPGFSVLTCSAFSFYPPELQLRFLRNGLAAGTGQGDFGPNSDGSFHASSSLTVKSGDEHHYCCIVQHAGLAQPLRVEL
T2 sequence (P16213 21-119 limits assumed, chain 2 of 2): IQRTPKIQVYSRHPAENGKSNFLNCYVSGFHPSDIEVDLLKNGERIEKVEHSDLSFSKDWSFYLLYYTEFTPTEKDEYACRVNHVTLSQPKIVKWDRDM

[3] = target: T1, Soluble recombinant human IL-6 receptor …; experiment: SPR, Biacore T100, biotinylated SR344 on streptavidin chip as membrane-type IL-6 receptor, ratio of dissociation rates
Method: The rates of dissociation of TOCILIZUMAB, Fv3-M73, and Fv4-M73 from membrane-type IL-6 receptor at pH 7.4 and 5.8 were determined.
(§1) The antigen-antibody reaction with membrane-type IL-6 receptor at pH 5.8 and pH 7.4 was observed using Biacore T100 (GE Healthcare). The binding to membrane-type IL-6 receptor was assessed by evaluating the binding to soluble human IL-6 receptor immobilized onto the sensor chip. SR344 was biotinylated by a method known to those skilled in the art. Based on the affinity between biotin and streptavidin, biotinylated soluble human IL-6 receptor was immobilized onto the sensor chip via streptavidin. All measurements were conducted at 37° C. The mobile phase buffer was 10 mM MES (pH 5.8), 150 mM NaCl, and 0.05% Tween 20. […] The dissociation rate constant (kd (1/s)) at pH 5.8 was calculated using Biacore T100 Evaluation Software (GE Healthcare) by fitting only the dissociation phase at pH 5.8. The sample concentration was 0.25 μg/ml. Binding was carried out in 10 mM MES (pH 7.4), 150 mM NaCl, and 0.05% Tween 20, and dissociation was carried out in 10 mM MES (pH 5.8), 150 mM NaCl, and 0.05% Tween 20. Likewise, the dissociation rate constant (kd (1/s)) at pH 7.4 was calculated using Biacore T100 Evaluation Software (GE Healthcare) by fitting only the dissociation phase at pH 7.4. The sample concentration was 0.5 μg/ml. Binding was carried out in 10 mM MES (pH 7.4), 150 mM NaCl, and 0.05% Tween 20, and dissociation was carried out in 10 mM MES (pH 7.4), 150 mM NaCl, and 0.05% Tween 20.

[4] = target: T1, Soluble recombinant human IL-6 receptor …; experiment: as above; remark: listed apart in the source
Method: as §1

[5] = target: T1, Soluble recombinant human IL-6 receptor …; experiment: SPR, Biacore T100, soluble IL-6 receptor as analyte
Method: (§2) Antigen-antibody reaction kinetics was analyzed using Biacore T100 (GE Healthcare). The soluble human IL-6 receptor-antibody interaction was measured by immobilizing appropriate amounts of protein A or protein A/G or anti-IgG (γ-chain specific) F(ab′)2 onto a sensor chip by amine coupling method, binding antibodies of interest onto the chip at pH7.4, and then running soluble IL-6 receptor adjusted to various concentrations at pH7.4 over the chip as an analyte. All measurements were carried out at 37° C. The kinetic parameters, association rate constant kₐ (1/Ms) and dissociation rate constant kd (1/s) were calculated from the sensorgrams obtained by measurement. Then, KD (M) was determined based on the rate constants. The respective parameters were determined using Biacore T100 Evaluation Software (GE Healthcare).

[6] = target: T1, Soluble recombinant human IL-6 receptor …; experiment: SPR, Biacore T100, antibody captured on chip, soluble IL-6 receptor as analyte; ratio against TOCILIZUMAB
Method: as §2

[7] = target: T1, Soluble recombinant human IL-6 receptor …; experiment: cell-based or functional assay; remark: listed apart in the source
[8] = target: T2, Soluble human FcRn (complex of FcRn and …); experiment: Biacore, binding to human FcRn; remark: listed apart in the source

B1: TOCILIZUMAB (H chain WT-IgG1; L chain WT-kappa) (antibody)
heavy: not shown
light: not shown
notes: IgG1/kappa; also called TOCILIZUMAB-IgG1; humanized anti-IL-6 receptor IgG1 antibody
IC50 (read off the curve) [1]: ~0.5 µg/mL | Kd [2]: 1620 nM | kd (pH 5.8)/kd (pH 7.4), pH … [3]: 1 | kd (pH 5.8)/kd (pH 7.4), pH … [4]: 1

B2: RDC-23 (H chain RDC23H-IgG1; L chain RDC-23L-kappa) (antibody, V domains shown)
VH: QVQLQESGPGLVRPSQTLSLTCTVSGYSITSDHAWSWVRQPPGRGLEWIGYISYSGITTYNPSLKSRVTMLRDTSKNQFSLRLSSVTAADTAVYYCARVLARITAMDYWGQGSLVTVSS
VL: DIQMTQSPSSLSASVGDRVTITCRASQDISSYLNWYQQKPGKAPKLLIYYTSRLHSGVPSRFSGSGSGTDFTFTISSLQPEDIATYYCGQGNRLPYTFGQGTKVEIKR
fold higher affinity than TOCILIZUMAB [5]: ~60 times | fold affinity relative to TOCILIZUMAB [6]: ~60 times | IC50 (read off the curve) [7]: ~0.02 µg/mL

B3: H53/L28 (H chain H53-IgG1; L chain L28-kappa) (antibody, V domains shown)
VH: QVQLQESGPGLVKPSETLSLTCAVSGYSISDDHAWSWVRQPPGEGLEWIGYISYSGITNYNPSLKGRVTISRDTSKNQFSLKLSSVTAADTAAYYCARSLARTTAMDYWGEGTLVTVSS
VL: DIQMTQSPSSLSASVGDSVTITCQASQDISSYLNWYQQKPGKAPELLIYYGSELHSGVPSRFSGSGSGTDFTFTISSLEAEDAATYYCQQGNSLPYTFGQGTKVEIER
notes: IgG1/kappa; also called TOCILIZUMAB with reduced isoelectric point
fold higher affinity than TOCILIZUMAB [5]: ~6 times | IC50 (read off the curve) [1]: ~0.1 µg/mL

B4: Fv3-M73 (H chain VH4-M73; L chain VL1-kappa) (antibody, V domains shown)
VH: QVQLQESGPGLVKPSETLSLTCAVSGHSISHDHAWSWVRQPPGEGLEWIGFISYSGITNYNPTLQGRVTISRDNSKNTLYLQMNSLRAEDTAVYYCARSLARTTAMDYWGEGTLVTVSS
VL: B3 VL with Q27R, Y32H, E53H, H55L, Q89G, S93R
notes: Fully humanized
kd (pH 5.8)/kd (pH 7.4), pH … [3]: 10.9

B5: Fv4-M73 (H chain VH3-M73; L chain VL3-kappa) (antibody, V domains shown)
VH: B4 VH with T63S
VL: B3 VL with Q27T, Y32H, E53H, H55L, Q89G, S93R
notes: Fully humanized
kd (pH 5.8)/kd (pH 7.4), pH … [3]: 10.1

B6: H3pI/L73 (H chain H3pI-IgG1; L chain L73-kappa) (antibody, V domains shown)
VH: B3 VH with Y27H, D31H, W35H
VL: B3 VL with D28H, Y32H, E53H, Q89G, S93R
notes: IgG1/kappa
kd (pH 5.8)/kd (pH 7.4), pH … [4]: 2.59

B7: TOCILIZUMAB-M58 (H chain WT-M58; L chain WT-kappa) (antibody, IgG2)
heavy: QVQLQESGPGLVRPSQTLSLTCTVSGYSITSDHAWSWVRQPPGRGLEWIGYISYSGITTYNPSLKSRVTMLRDTSKNQFSLRLSSVTAADTAVYYCARSLARTTAMDYWGQGSLVTVSSASTKGPSVFPLAPSSKSTSGGTAALGCLVKDYFPEPVTVSWNSGALTSGVHTFPAVLQSSGLYSLSSVVTVPSSNFGTQTYTCNVDHKPSNTKVDKTVERKSCVECPPCPAPPVAGPSVFLFPPKPKDTLMISRTPEVTCVVVDVSQEDPEVQFNWYVDGVEVHNAKTKPREEQFNSTFRVVSVLTVVHQDWLNGKEYKCKVSNKGLPAPIEKTISKTKGQPREPQVYTLPPSQEEMTKNQVSLTCLVKGFYPSDIAVEWESNGQPENNYKTTPPMLDSDGSFFLYSKLTVDKSRWQEGNVFSCSVMHEALHNHYTQKSLSLSP
light: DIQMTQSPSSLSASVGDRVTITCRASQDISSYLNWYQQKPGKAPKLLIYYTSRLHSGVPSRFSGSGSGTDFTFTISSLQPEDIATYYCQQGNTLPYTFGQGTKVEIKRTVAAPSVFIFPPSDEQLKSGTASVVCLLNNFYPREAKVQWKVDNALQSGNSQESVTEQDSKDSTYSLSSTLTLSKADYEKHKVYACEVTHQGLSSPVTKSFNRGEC
notes: M58 constant region: altered IgG2 (SKSC with further changes, Gly446 and Lys447 deleted)
fold superior binding than TOCILIZUMAB-IgG1 [8]: ~1.4 times

B8: TOCILIZUMAB-M73 (H chain WT-M73; L chain WT-kappa) (antibody)
heavy: B7 heavy with N432A
light: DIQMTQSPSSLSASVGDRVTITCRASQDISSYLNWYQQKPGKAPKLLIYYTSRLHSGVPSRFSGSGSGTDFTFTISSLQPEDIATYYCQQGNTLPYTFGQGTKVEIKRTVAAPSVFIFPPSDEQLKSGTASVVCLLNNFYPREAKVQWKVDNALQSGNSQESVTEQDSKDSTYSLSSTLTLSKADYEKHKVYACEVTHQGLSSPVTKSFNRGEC
notes: M73 constant region: M58 with asparagine 434 (EU) changed to alanine
fold superior binding than TOCILIZUMAB-IgG1 [8]: ~3.8 times
